{"source": "the Immune Epitope Database (IEDB)", "key": {"HLA-A*02:01 [1]": {"target": "HLA-A*02:01", "experiment": "IEDB peptide-MHC binding, purified MHC/direct/fluorescence; filed as Kd, often an IC50 or EC50 that approximates it; ≥ and ≤ were set here for values at or beyond the usual limits of such assays"}, "HLA-B*08:01 [2]": {"target": "HLA-B*08:01", "experiment": "IEDB peptide-MHC binding, purified MHC/direct/fluorescence; filed as Kd, often an IC50 or EC50 that approximates it; ≥ and ≤ were set here for values at or beyond the usual limits of such assays"}, "HLA-A*69:01": {"target": "HLA-A*69:01", "experiment": "IEDB peptide-MHC binding, purified MHC/direct/fluorescence; filed as Kd, often an IC50 or EC50 that approximates it; ≥ and ≤ were set here for values at or beyond the usual limits of such assays"}, "HLA-A*30:01": {"target": "HLA-A*30:01", "experiment": "IEDB peptide-MHC binding, purified MHC/direct/fluorescence; filed as Kd, often an IC50 or EC50 that approximates it; ≥ and ≤ were set here for values at or beyond the usual limits of such assays"}, "HLA-A*26:01": {"target": "HLA-A*26:01", "experiment": "IEDB peptide-MHC binding, purified MHC/direct/fluorescence; filed as Kd, often an IC50 or EC50 that approximates it; ≥ and ≤ were set here for values at or beyond the usual limits of such assays"}, "HLA-A*01:01": {"target": "HLA-A*01:01", "experiment": "IEDB peptide-MHC binding, purified MHC/direct/fluorescence; filed as Kd, often an IC50 or EC50 that approximates it; ≥ and ≤ were set here for values at or beyond the usual limits of such assays"}, "HLA-B*58:01": {"target": "HLA-B*58:01", "experiment": "IEDB peptide-MHC binding, purified MHC/direct/fluorescence; filed as Kd, often an IC50 or EC50 that approximates it; ≥ and ≤ were set here for values at or beyond the usual limits of such assays"}, "HLA-A*24:03": {"target": "HLA-A*24:03", "experiment": "IEDB peptide-MHC binding, purified MHC/direct/fluorescence; filed as Kd, often an IC50 or EC50 that approximates it; ≥ and ≤ were set here for values at or beyond the usual limits of such assays"}, "HLA-B*27:05": {"target": "HLA-B*27:05", "experiment": "IEDB peptide-MHC binding, purified MHC/direct/fluorescence; filed as Kd, often an IC50 or EC50 that approximates it; ≥ and ≤ were set here for values at or beyond the usual limits of such assays"}, "HLA-A*31:01": {"target": "HLA-A*31:01", "experiment": "IEDB peptide-MHC binding, purified MHC/direct/fluorescence; filed as Kd, often an IC50 or EC50 that approximates it; ≥ and ≤ were set here for values at or beyond the usual limits of such assays"}, "HLA-B*15:01 [3]": {"target": "HLA-B*15:01", "experiment": "IEDB peptide-MHC binding, purified MHC/direct/fluorescence; filed as Kd, often an IC50 or EC50 that approximates it; ≥ and ≤ were set here for values at or beyond the usual limits of such assays"}, "HLA-B*40:01": {"target": "HLA-B*40:01", "experiment": "IEDB peptide-MHC binding, purified MHC/direct/fluorescence; filed as Kd, often an IC50 or EC50 that approximates it; ≥ and ≤ were set here for values at or beyond the usual limits of such assays"}, "HLA-B*07:02": {"target": "HLA-B*07:02", "experiment": "IEDB peptide-MHC binding, purified MHC/direct/fluorescence; filed as Kd, often an IC50 or EC50 that approximates it; ≥ and ≤ were set here for values at or beyond the usual limits of such assays"}, "HLA-A*03:01": {"target": "HLA-A*03:01", "experiment": "IEDB peptide-MHC binding, purified MHC/direct/fluorescence; filed as Kd, often an IC50 or EC50 that approximates it; ≥ and ≤ were set here for values at or beyond the usual limits of such assays"}, "HLA-A*11:01": {"target": "HLA-A*11:01", "experiment": "IEDB peptide-MHC binding, purified MHC/direct/fluorescence; filed as Kd, often an IC50 or EC50 that approximates it; ≥ and ≤ were set here for values at or beyond the usual limits of such assays"}, "HLA-B*44:02": {"target": "HLA-B*44:02", "experiment": "IEDB peptide-MHC binding, purified MHC/direct/fluorescence; filed as Kd, often an IC50 or EC50 that approximates it; ≥ and ≤ were set here for values at or beyond the usual limits of such assays"}, "HLA-B*35:01": {"target": "HLA-B*35:01", "experiment": "IEDB peptide-MHC binding, purified MHC/competitive/fluorescence; filed as Kd, often an IC50 or EC50 that approximates it; ≥ and ≤ were set here for values at or beyond the usual limits of such assays", "conditions": "source organism: Escherichia coli str. K-12 substr. MG1655"}, "HLA-A*02:01 [4]": {"target": "HLA-A*02:01", "experiment": "IEDB peptide-MHC binding, purified MHC/competitive/fluorescence; filed as Kd, often an IC50 or EC50 that approximates it; ≥ and ≤ were set here for values at or beyond the usual limits of such assays", "conditions": "source organism: Escherichia coli 536"}, "HLA-B*08:01 [5]": {"target": "HLA-B*08:01", "experiment": "IEDB peptide-MHC binding, purified MHC/competitive/fluorescence; filed as Kd, often an IC50 or EC50 that approximates it; ≥ and ≤ were set here for values at or beyond the usual limits of such assays", "conditions": "source organism: Escherichia coli 536"}, "HLA-B*15:01 [6]": {"target": "HLA-B*15:01", "experiment": "IEDB peptide-MHC binding, purified MHC/competitive/fluorescence; filed as Kd, often an IC50 or EC50 that approximates it; ≥ and ≤ were set here for values at or beyond the usual limits of such assays", "conditions": "source organism: Escherichia coli 536"}, "[7]": {"conditions": "source organism: Pseudomonas aeruginosa UCBPP-PA14"}, "[8]": {"conditions": "source organism: Pseudomonas aeruginosa"}, "[9]": {"conditions": "source organism: Campylobacter jejuni"}, "[10]": {"conditions": "source organism: Giardia lamblia ATCC 50803"}, "[11]": {"conditions": "source organism: Escherichia coli"}}}
{"sequence": "RDYRTISPR", "values": [{"measurement": "Kd", "setting": "HLA-A*02:01 [1]; [7]", "result": "≥ 20", "unit": "µM"}, {"measurement": "Kd", "setting": "HLA-B*08:01 [2]; [7]", "result": "≥ 20", "unit": "µM"}, {"measurement": "Kd", "setting": "HLA-A*69:01; [7]", "result": "≥ 20", "unit": "µM"}, {"measurement": "Kd", "setting": "HLA-A*30:01; [8]", "result": 2.01, "unit": "µM"}, {"measurement": "Kd", "setting": "HLA-A*26:01; [7]", "result": "≥ 20", "unit": "µM"}, {"measurement": "Kd", "setting": "HLA-A*01:01; [7]", "result": "≥ 20", "unit": "µM"}, {"measurement": "Kd", "setting": "HLA-B*58:01; [7]", "result": "≥ 20", "unit": "µM"}, {"measurement": "Kd", "setting": "HLA-A*24:03; [7]", "result": "≥ 20", "unit": "µM"}, {"measurement": "Kd", "setting": "HLA-B*27:05; [7]", "result": "≥ 20", "unit": "µM"}, {"measurement": "Kd", "setting": "HLA-A*31:01; [8]", "result": 0.046, "unit": "µM"}, {"measurement": "Kd", "setting": "HLA-B*15:01 [3]; [7]", "result": "≥ 20", "unit": "µM"}, {"measurement": "Kd", "setting": "HLA-B*40:01; [7]", "result": "≥ 20", "unit": "µM"}, {"measurement": "Kd", "setting": "HLA-B*07:02; [7]", "result": "≥ 20", "unit": "µM"}, {"measurement": "Kd", "setting": "HLA-A*03:01; [8]", "result": 3.44, "unit": "µM"}, {"measurement": "Kd", "setting": "HLA-A*11:01; [8]", "result": 8.65, "unit": "µM"}]}
{"sequence": "VKKLWGHLP", "values": [{"measurement": "Kd", "setting": "HLA-A*02:01 [1]; [9]", "result": "≥ 20", "unit": "µM"}, {"measurement": "Kd", "setting": "HLA-A*69:01; [9]", "result": "≥ 20", "unit": "µM"}, {"measurement": "Kd", "setting": "HLA-A*30:01; [9]", "result": "≥ 20", "unit": "µM"}, {"measurement": "Kd", "setting": "HLA-A*26:01; [9]", "result": "≥ 20", "unit": "µM"}, {"measurement": "Kd", "setting": "HLA-A*01:01; [9]", "result": "≥ 20", "unit": "µM"}, {"measurement": "Kd", "setting": "HLA-B*58:01; [9]", "result": "≥ 20", "unit": "µM"}, {"measurement": "Kd", "setting": "HLA-A*24:03; [9]", "result": "≥ 20", "unit": "µM"}, {"measurement": "Kd", "setting": "HLA-B*27:05; [9]", "result": "≥ 20", "unit": "µM"}, {"measurement": "Kd", "setting": "HLA-A*31:01; [9]", "result": "≥ 20", "unit": "µM"}, {"measurement": "Kd", "setting": "HLA-B*44:02; [9]", "result": "≥ 20", "unit": "µM"}, {"measurement": "Kd", "setting": "HLA-B*15:01 [3]; [9]", "result": "≥ 20", "unit": "µM"}, {"measurement": "Kd", "setting": "HLA-B*40:01; [9]", "result": "≥ 20", "unit": "µM"}, {"measurement": "Kd", "setting": "HLA-A*03:01; [9]", "result": "≥ 20", "unit": "µM"}, {"measurement": "Kd", "setting": "HLA-A*11:01; [9]", "result": "≥ 20", "unit": "µM"}]}
{"sequence": "VYAYPSGEK", "values": [{"measurement": "Kd", "setting": "HLA-A*02:01 [1]; [10]", "result": "≥ 20", "unit": "µM"}, {"measurement": "Kd", "setting": "HLA-B*08:01 [2]; [10]", "result": "≥ 20", "unit": "µM"}, {"measurement": "Kd", "setting": "HLA-A*69:01; [10]", "result": "≥ 20", "unit": "µM"}, {"measurement": "Kd", "setting": "HLA-A*30:01; [10]", "result": 4.7, "unit": "µM"}, {"measurement": "Kd", "setting": "HLA-A*26:01; [10]", "result": "≥ 20", "unit": "µM"}, {"measurement": "Kd", "setting": "HLA-A*01:01; [10]", "result": "≥ 20", "unit": "µM"}, {"measurement": "Kd", "setting": "HLA-B*58:01; [10]", "result": "≥ 20", "unit": "µM"}, {"measurement": "Kd", "setting": "HLA-A*24:03; [10]", "result": "≥ 20", "unit": "µM"}, {"measurement": "Kd", "setting": "HLA-B*27:05; [10]", "result": "≥ 20", "unit": "µM"}, {"measurement": "Kd", "setting": "HLA-B*44:02; [10]", "result": "≥ 20", "unit": "µM"}, {"measurement": "Kd", "setting": "HLA-B*15:01 [3]; [10]", "result": "≥ 20", "unit": "µM"}, {"measurement": "Kd", "setting": "HLA-B*40:01; [10]", "result": "≥ 20", "unit": "µM"}, {"measurement": "Kd", "setting": "HLA-B*07:02; [10]", "result": "≥ 20", "unit": "µM"}, {"measurement": "Kd", "setting": "HLA-A*03:01; [10]", "result": 3.37, "unit": "µM"}, {"measurement": "Kd", "setting": "HLA-A*11:01; [10]", "result": 7.74, "unit": "µM"}]}
{"sequence": "WCRVGRGTI", "values": [{"measurement": "Kd", "setting": "HLA-A*02:01 [1]; [11]", "result": "≥ 20", "unit": "µM"}, {"measurement": "Kd", "setting": "HLA-B*08:01 [2]; [11]", "result": "≥ 20", "unit": "µM"}, {"measurement": "Kd", "setting": "HLA-A*69:01; [11]", "result": "≥ 20", "unit": "µM"}, {"measurement": "Kd", "setting": "HLA-A*30:01; [11]", "result": "≥ 20", "unit": "µM"}, {"measurement": "Kd", "setting": "HLA-A*26:01; [11]", "result": "≥ 20", "unit": "µM"}, {"measurement": "Kd", "setting": "HLA-A*01:01; [11]", "result": "≥ 20", "unit": "µM"}, {"measurement": "Kd", "setting": "HLA-B*58:01; [11]", "result": "≥ 20", "unit": "µM"}, {"measurement": "Kd", "setting": "HLA-A*24:03; [11]", "result": 13.8, "unit": "µM"}, {"measurement": "Kd", "setting": "HLA-B*27:05; [11]", "result": "≥ 20", "unit": "µM"}, {"measurement": "Kd", "setting": "HLA-A*31:01; [11]", "result": "≥ 20", "unit": "µM"}, {"measurement": "Kd", "setting": "HLA-B*15:01 [3]; [11]", "result": "≥ 20", "unit": "µM"}, {"measurement": "Kd", "setting": "HLA-B*40:01; [11]", "result": "≥ 20", "unit": "µM"}, {"measurement": "Kd", "setting": "HLA-B*07:02; [11]", "result": 4.68, "unit": "µM"}, {"measurement": "Kd", "setting": "HLA-A*03:01; [11]", "result": "≥ 20", "unit": "µM"}, {"measurement": "Kd", "setting": "HLA-A*11:01; [11]", "result": "≥ 20", "unit": "µM"}, {"measurement": "Kd", "setting": "HLA-B*35:01", "result": "≥ 5", "unit": "µM"}]}
{"sequence": "WLLLRQLPI", "values": [{"measurement": "Kd", "setting": "HLA-A*02:01 [4]", "result": 0.0146, "unit": "µM"}, {"measurement": "Kd", "setting": "HLA-B*08:01 [5]", "result": 0.0452, "unit": "µM"}, {"measurement": "Kd", "setting": "HLA-B*15:01 [6]", "result": "≥ 20", "unit": "µM"}]}
{"sequence": "WSHRVTSPK", "values": [{"measurement": "Kd", "setting": "HLA-A*30:01; source organism: Vibrio cholerae V52", "result": 0.05, "unit": "µM"}, {"measurement": "Kd", "setting": "HLA-A*01:01; source organism: Vibrio cholerae", "result": "≥ 20", "unit": "µM"}]}
